Patent US20250155457A1 (DIAGNOSTICA STAGO, published 2025)

Assays:
Experiment in all cases: cell-based or functional assay
[1] = target: T1, exogenous platelet factor 4 (PF4), heparin-modified (PF4/heparin complex) (UniProt P02776 32-101)
T1 sequence (looked up): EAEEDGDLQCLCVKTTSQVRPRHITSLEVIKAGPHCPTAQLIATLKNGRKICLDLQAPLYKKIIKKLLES

[2] = target: T1, exogenous platelet factor 4 (PF4), …; remark: listed apart in the source
[3] = target: T1, exogenous platelet factor 4 (PF4), …; remark: listed apart in the source
[4] = target: T1, exogenous platelet factor 4 (PF4), …; remark: listed apart in the source
[5] = target: T1, exogenous platelet factor 4 (PF4), …; remark: listed apart in the source
[6] = target: T1, exogenous platelet factor 4 (PF4), …; remark: listed apart in the source
[7] = target: T1, exogenous platelet factor 4 (PF4), …; remark: listed apart in the source
[8] = target: T1, exogenous platelet factor 4 (PF4), …; remark: listed apart in the source
[9] = target: T1, exogenous platelet factor 4 (PF4), …; remark: listed apart in the source
[10] = target: T1, exogenous platelet factor 4 (PF4), …; remark: listed apart in the source
[11] = target: T1, exogenous platelet factor 4 (PF4), …; remark: listed apart in the source
[12] = target: T1, exogenous platelet factor 4 (PF4), …; remark: listed apart in the source

VS series activation ratio, CD62P labeling, patient 2 whole blood [1]: 13.2 ratio
VS series inhibition ratio, CD62P labeling, patient 2 whole blood (heparin 100 IU/ml) [1]: 0.9 ratio
VS series activation ratio, CD62P labeling, patient 4 whole blood [2]: 281 ratio
VS series inhibition ratio, CD62P labeling, patient 4 whole blood (heparin 100 IU/ml) [2]: 0.94 ratio
VS series activation ratio, CD62P labeling, patient 3 whole blood [3]: 94.2 ratio
VS series inhibition ratio, CD62P labeling, patient 3 whole blood (heparin 100 IU/ml) [3]: 0.57 ratio
VS series activation ratio, Annexin V labeling, patient 4 whole blood [4]: 412 ratio
VS series inhibition ratio, Annexin V labeling, patient 4 whole blood (heparin 100 IU/ml) [4]: 0.95 ratio
VS series activation ratio, CD62P labeling, patient 6 whole blood [5]: 117 ratio
VS series inhibition ratio, CD62P labeling, patient 6 whole blood (heparin 100 IU/ml) [5]: 0.94 ratio
VS series activation ratio, Annexin V labeling, patient 5 whole blood [6]: 8.6 ratio
VS series inhibition ratio, Annexin V labeling, patient 5 whole blood (heparin 100 IU/ml) [6]: 0.61 ratio
VS series activation ratio, CD62P labeling, patient 5 whole blood [7]: 52.7 ratio
VS series inhibition ratio, CD62P labeling, patient 5 whole blood (heparin 100 IU/ml) [7]: 0.84 ratio
VS series activation ratio, Annexin V labeling, patient 3 whole blood [8]: 21.7 ratio
VS series inhibition ratio, Annexin V labeling, patient 3 whole blood (heparin 100 IU/ml) [8]: 0.74 ratio
VS series activation ratio, Annexin V labeling, patient 6 whole blood [9]: 26.5 ratio
VS series inhibition ratio, Annexin V labeling, patient 6 whole blood (heparin 100 IU/ml) [9]: 0.75 ratio
VS series activation ratio, CD62P labeling, patient 1 whole blood (max % x MFI with 5B9 + PF4 + low heparin over basal) [10]: 300 ratio
VS series inhibition ratio, CD62P labeling, patient 1 whole blood (heparin 100 IU/ml) [10]: 0.88 ratio
VS series activation ratio, Annexin V labeling, patient 1 whole blood [11]: 95.9 ratio
VS series inhibition ratio, Annexin V labeling, patient 1 whole blood (heparin 100 IU/ml) [11]: 0.85 ratio
VS series activation ratio, Annexin V labeling, patient 2 whole blood [12]: 11.3 ratio
VS series inhibition ratio, Annexin V labeling, patient 2 whole blood (heparin 100 IU/ml) [12]: 0.65 ratio
B1: chimeric monoclonal antibody 5B9 (antibody, V domains shown)
VH: DVQLQESGPDLVKPSQSLSLTCTVTGYSITSGYSWHWIRQFPGNKLEWMGYIHYSGSTNYNPSLKSRISITRDTSKNQFFLQLNSVTTEDTATYYCARELRLRYFDVWGAGTTVTVSS
VL: EIVLTQSPTTMAASPGEKITITCSASSSISSNYLHWYQQKPGFSPKLLIYRTSNLASGVPARFSGSGSGTSYSLTIGTMEAEDVATYYCQQGSSIPLTFGAGTKLELKR
